Source: paper PMC7794297

Substrate: OC[C@H]1O[C@@H](O)[C@H](O)[C@@H](O)[C@@H]1O
Assay: GOx activity assay, glucose oxidase-horseradish peroxidase coupled system with o-dianisidine
Assay type: biochemical, Aspergillus niger
Settings: other: control, glucose conversion; 37.0 °C

B1: glucose oxidase (GOx) (Aspergillus niger) (protein)
chain: LPHYIRSNGIEASLLTDPKDVSGRTVDYIIAGGGLTGLTTAARLTENPNISVLVIESGSYESDRGPIIEDLNAYGDIFGSSVDHAYETVELATNNQTALIRSGNGLGGSTLVNGGTWTRPHKAQVDSWETVFGNEGWNWDNVAAYSLQAERARAPNAKQIAAGHYFNASCHGVNGTVHAGPRDTGDDYSPIVKALMSAVEDRGVPTKKDFGCGDPHGVSMFPNTLHEDQVRSDAAREWLLPNYQRPNLQVLTGQYVGKVLLSQNGTTPRAVGVEFGTHKGNTHNVYAKHEVLLAAGSAVSPTILEYSGIGMKSILEPLGIDTVVDLPVGLNLQDQTTATVRSRITSAGAGQGQAAWFATFNETFGDYSEKAHELLNTKLEQWAEEAVARGGFHNTTALLIQYENYRDWIVNHNVAYSELFLDTAGVASFDVWDLLPFTRGYVHILDKDPYLHHFAYDPQYFLNELDLLGQAAATQLARNISNSGAMQTYFAGETIPGDNLAYDADLSAWTEYIPYHFRPNYHGVGTCSMMPKEMGGVVDNAARVYGVQGLRVIDGSIPPTQMSSHVMTVFYAMALKISDAILEDYASMQ
notes: purchased Sigma Aldrich
What does the source list for B1?
Km: 15 ± 2 mM; kcat: 0.00233 ± 0.00017 s⁻¹
